These are literature values, as cited in publication PMC7830187.

For orientation: Kd means a measure of binding affinity in units of concentration.

This data set addresses synthetic peptide.

Take intersectin-1 SH3 (from UniProt Q15811): the dissociation constant (Kd) was 50 µM.
